In general, Kd refers to the equilibrium constant for the complex coming apart. The term koff denotes the first-order rate constant of dissociation. A word on the kon: it is a measure of how fast the partners come together. As a reminder, the EC50 is the concentration giving half of the maximal effect. Broadly, the IC50 is the concentration that gives 50% inhibition.

This note sets out measurements from patent publication US20160185859A1 (Pfizer, published 2016).

Like-named read-outs stand apart in the source and are kept apart here.

Assay [1] concerns the target human 5T4 antigen expressed on cells (PC14PE6 cells; MDAMB435/5T4 cells) (human) (UniProt Q13641). As to the kind of experiment: FACS of PC14PE6 cells; control.
The target in assay [2] is T1, human 5T4 antigen (human, UniProt Q13641 32-355, limits assumed).
T1 sequence: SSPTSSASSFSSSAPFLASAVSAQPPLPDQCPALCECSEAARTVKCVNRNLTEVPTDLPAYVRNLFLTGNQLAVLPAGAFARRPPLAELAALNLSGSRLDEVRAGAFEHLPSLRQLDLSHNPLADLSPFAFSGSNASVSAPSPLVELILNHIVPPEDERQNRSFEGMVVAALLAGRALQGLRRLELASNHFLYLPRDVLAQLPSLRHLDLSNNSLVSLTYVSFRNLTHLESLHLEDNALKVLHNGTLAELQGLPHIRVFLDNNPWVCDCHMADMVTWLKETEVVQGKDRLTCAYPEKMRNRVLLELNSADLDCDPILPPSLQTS
Kind of assay: BIACORE; human 5T4 chip saturated with first antibody humanized H8 (competitor); 75 s after injection of second antibody.

Assay [3] concerns the target T1, human 5T4 antigen. Kind of assay: BIACORE; human 5T4 chip saturated with first antibody humanized H8 (competitor); 150 s after injection of second antibody. (SPR reads the build-up and loss of mass on a sensor chip optically.)
Assay [4] concerns the target T1, human 5T4 antigen. Kind of assay: BIACORE; human 5T4 chip saturated with first antibody humanized H8 (competitor); 19 s after injection of second antibody.
Assay [5] concerns the target T1, human 5T4 antigen. As to the kind of experiment: BIACORE (SPR); human 5T4 antigen immobilized on CM5 chip. How it is done:
(§1) To assess the binding specificity and affinity of the A1, A2, and A3 antibodies, BIACORE® analysis was performed using human 5T4 antigen immobilized on a CM5 chip. BIACORE® technology utilizes changes in the refractive index at the surface layer upon binding of the antibody to the 5T4 antigen immobilized on the layer. Binding is detected by surface plasmon resonance (SPR) of laser light refracting from the surface. Analysis of the signal kinetics on rate and off rate allows discrimination between non-specific and specific interactions. The H8 anti-5T4 antibody was used as a control. H8 is a hybridoma-generated monoclonal mouse IgG1 antibody described in PCT International Publication No. WO 98/55607 and in Forsberg et al. (1997) J. Biol. Chem. 272(19):[…].
To assess the binding specificity and affinity of the chimeric and humanized H8, A1, A2, and A3 antibodies, BIACORE® analysis was performed using human 5T4 antigen immobilized on a CM5 chip. See Example 2.

Assay [6] has as its target T1, human 5T4 antigen. As to the kind of experiment: BIACORE; human 5T4 chip saturated with first antibody humanized H8 (competitor); 300 s after injection of second antibody.
Another assay has as its target T2, human 5T4 ectodomain Fc (human, UniProt Q13641 32-355).
T2 construct: also called human 5T4 ectodomain Fc fusion protein; Human 5T4 Ectodomain/Fc Fusion; not shown: Fc constant regions from human IgG1
T2 sequence: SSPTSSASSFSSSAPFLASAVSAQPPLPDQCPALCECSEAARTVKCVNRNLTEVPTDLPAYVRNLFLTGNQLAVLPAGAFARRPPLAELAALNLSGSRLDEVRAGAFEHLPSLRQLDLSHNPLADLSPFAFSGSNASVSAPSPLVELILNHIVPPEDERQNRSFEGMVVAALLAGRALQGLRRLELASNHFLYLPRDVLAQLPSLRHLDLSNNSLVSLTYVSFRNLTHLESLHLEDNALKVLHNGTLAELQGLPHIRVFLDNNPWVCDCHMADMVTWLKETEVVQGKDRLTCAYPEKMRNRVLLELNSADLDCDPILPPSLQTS
Kind of assay: ELISA; 5T4 ectodomain/Fc fusion protein from transiently transfected COS-1 cells; given as ED50. How it is done:
(§2) To assay binding of anti-5T4 antibodies, 5T4 ectodomain/Fc fusion proteins were transiently transfected into COS-1 cells, and ELISA assays were performed. Non-relevant human IgG4 and IgG1 antibodies were used as controls.
In general terms: An ELISA detects its analyte on a solid surface through an enzyme-linked reagent.

Assay [7] deals with T3, cynomologous monkey 5T4 ectodomain Fc (cynomologous monkey; human, UniProt Q4R8Y9 32-355).
T3 construct: not shown: Fc constant regions from human IgG1
T3 chain: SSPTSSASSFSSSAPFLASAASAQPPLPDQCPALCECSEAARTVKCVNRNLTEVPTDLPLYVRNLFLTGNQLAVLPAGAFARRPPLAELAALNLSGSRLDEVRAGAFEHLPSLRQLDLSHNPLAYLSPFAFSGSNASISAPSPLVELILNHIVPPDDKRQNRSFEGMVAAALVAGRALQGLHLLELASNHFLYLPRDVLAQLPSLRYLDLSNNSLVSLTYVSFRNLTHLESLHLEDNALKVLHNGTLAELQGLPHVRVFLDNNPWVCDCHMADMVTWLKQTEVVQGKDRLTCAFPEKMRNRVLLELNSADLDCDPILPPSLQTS
The description is as above. As for the experimental part:
as §2

Assay [8] concerns the target chimpanzee 5T4 ectodomain Fc (chimpanzee; human, UniProt P01857 99-330 = IgG part). The assay is described as above. How it is done:
as §2

For assay [9], the target named is T4, black-tailed marmoset 5T4 ectodomain Fc (black-tailed marmoset; human, UniProt Q13641 32-355).
T4 construct: not shown: Fc constant regions from human IgG1
T4 chain: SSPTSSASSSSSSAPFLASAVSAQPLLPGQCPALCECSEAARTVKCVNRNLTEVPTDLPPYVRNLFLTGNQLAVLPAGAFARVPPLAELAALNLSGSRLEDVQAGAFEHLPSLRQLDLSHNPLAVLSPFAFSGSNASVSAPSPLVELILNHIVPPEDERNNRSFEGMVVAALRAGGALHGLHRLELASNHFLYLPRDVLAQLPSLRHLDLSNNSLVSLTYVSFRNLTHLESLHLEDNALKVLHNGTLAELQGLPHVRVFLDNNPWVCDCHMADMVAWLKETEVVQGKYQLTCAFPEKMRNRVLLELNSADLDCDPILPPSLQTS
The description is as above. How it is done:
as §2

Assay [10] concerns the target T1, human 5T4 antigen. Kind of assay: BIACORE; human 5T4 chip saturated with first antibody humanized H8 (competitor); 37.5 s after injection of second antibody.
Assay [11] addresses T1, human 5T4 antigen. Kind of assay: BIACORE; human 5T4 chip saturated with first antibody humanized H8 (competitor); 600 s after injection of second antibody.
In assay [12] the target is T1, human 5T4 antigen. As to the kind of experiment: ELISA; inhibition of biotinylated chimeric A1 antibody binding to human 5T4.
Assay [13] deals with T1, human 5T4 antigen. Kind of assay: BIACORE (SPR); human 5T4 antigen immobilized on CM5 chip. As for the experimental part: as §1
The source holds these as a separate data set.

The target of assay [14] is T1, human 5T4 antigen. Kind of assay: BIACORE; human 5T4 chip saturated with first antibody H8 (competitor). How it is done: Epitope mapping of the H8, A1, A2, and A3 antibodies was also performed using BIACORE® using a CM5 chip with bound human 5T4 antigen. The chip was saturated with H8, A1, A2, or A3 antibody, and a first response was measured. The chip was then saturated with a second antibody from among the H8, A1, A2, and A3 antibodies, and a second response was measured. For multiple experiments, the chip was regenerated by dissociation of the bound antibodies in 10 mM glycine, pH 1.5, followed by a buffer wash. The percentages shown are the response units measured upon binding by a second antibody directly to the CM5 chip divided by the response units measured upon binding of the second antibody to a CM5 chip saturated with a first antibody.

Assay [15] addresses T5, human 5T4 antigen expressed on cells (PC14PE6 cells; MDAMB435/5T4 cells) (human, UniProt Q13641 32-420).
T5 construct: PC14PE6 are human non-small cell lung cancer cells; also called 5T4-expressing PC14PE6 cells
T5 sequence: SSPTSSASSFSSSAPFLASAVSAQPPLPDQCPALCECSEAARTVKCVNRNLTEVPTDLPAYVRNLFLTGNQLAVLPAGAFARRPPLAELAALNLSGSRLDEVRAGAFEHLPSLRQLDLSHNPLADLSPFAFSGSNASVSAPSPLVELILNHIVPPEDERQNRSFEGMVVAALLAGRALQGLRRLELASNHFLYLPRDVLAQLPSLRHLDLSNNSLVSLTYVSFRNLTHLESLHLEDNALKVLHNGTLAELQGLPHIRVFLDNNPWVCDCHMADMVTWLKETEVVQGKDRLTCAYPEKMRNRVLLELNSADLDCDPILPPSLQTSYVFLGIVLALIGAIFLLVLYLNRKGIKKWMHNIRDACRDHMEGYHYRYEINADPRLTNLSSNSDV
Kind of assay: FACS of PC14PE6 cells.

Assay [16] addresses T5, human 5T4 antigen expressed on cells …. Kind of assay: cell-based or functional assay.

Consider Control (secondary Ab) (antibody), for which the Mean Cellular Flouresence in [1] worked out at 4.
Still for that read-out and setting: the figure for Control (murine IgG) (antibody) is 4.

B1: chimeric A1 antibody (antibody, V domains shown)
VH: QIQLVQSGPELKKPGETVKISCKASGYTFTNFGMNWVKQGPGEGLKWMGWINTNTGEPRYAEEFKGRCAFSLETTASTAYLQINNLKNEDTATYFCARDWDGAYFFDYWGQGTTLTVSS
VL: SIVMTQTPKFLLVSAGDRVTITCKASQSVSNDVAWYQQKPGQSPKLLINFATNRYTGVPNRFTGSGYGTDFTFTISTVQAEDLALYFCQQDYSSPWTFGGGTKLEIK
modifications: Biotinylated when used as the labelled competitor in Table 13; the site is not stated.
notes: also called ChiA1; ChiA1 γ4
On to B1, for which the “percentage of second antibody bound following saturation with first antibody” value in the assay with human 5T4 antigen [2] is 93.8%; with human 5T4 antigen [3] it was 95.8%; in the assay with human 5T4 antigen [4], 92.7%; with human 5T4 antigen [6] it was 97.3%; with human 5T4 antigen [10] it was 92.4%; in the assay with human 5T4 antigen [11] it was 98.7%. Also, in the assay with human 5T4 antigen [5], the Ka worked out at 2.3e+09 M⁻¹. In the assay with human 5T4 antigen [5], this molecule displayed a Kd of 0.44 nM. The same molecule displayed an off-rate constant (koff) with human 5T4 antigen [5] of 6.7e-05 s⁻¹. In the assay with human 5T4 antigen [5], this molecule returned a kon of 150000 M⁻¹ s⁻¹. In addition, the half-maximal effective concentration (EC50) came out at 0.28 nM in the assay with human 5T4 ectodomain Fc, 0.18 nM in assay [7], 0.27 nM in [8] and 0.24 nM in assay [9]. In the assay with human 5T4 antigen [12], this molecule yielded an IC50 of 16 to 20 nM.

B2: murine anti-5T4 antibody A1 (antibody, V domains shown)
VH: QIQLVQSGPELKKPGETVKISCKASGYTFTNFGMNWVKQGPGEGLKWMGWINTNTGEPRYAEEFKGRCAFSLETTASTAYLQINNLKNEDTATYFCARDWDGAYFFDYWGQGTTLTVSS
VL: SIVMTQTPKFLLVSAGDRVTITCKASQSVSNDVAWYQQKPGQSPKLLINFATNRYTGVPNRFTGSGYGTDFTFTISTVQAEDLALYFCQQDYSSPWTFGGGTKLEIK
In the case of B2, in the assay with human 5T4 antigen [13], the Ka was determined as 1.6e+09 M⁻¹, the dissociation constant Kd amounted to 0.64 nM, the koff turned out to be 0.00013 s⁻¹ and the on-rate (kon) came out at 200000 M⁻¹ s⁻¹. Moreover, the “percentage response of second antibody following saturation with first antibody” value in the assay with human 5T4 antigen [14] amounted to 109%. Moreover, in assay [15], the “Mean Cellular Flouresence” value came out at 18.

B3: A2-AcBut-CalichDMH, A2 antibody conjugated to calicheamicin using 4-(4'-acetylphenoxy)butanoic acid (AcBut) (other)
VH: QVQLQQSRPELVKPGASVKMSCKASGYTFTDYVISWVKQRTGQGLEWIGEIYPGSNSIYYNEKFKGRATLTADKSSSTAYMQLSSLTSEDSAVYFCAMGGNYGFDYWGQGTTLTVSS
VL: QIVLTQSPAIMSASLGERVTLTCTASSSVNSNYLHWYQQKPGSSPKLWIYSTSNLASGVPARFSGSGSGTSYSLTISSMEAEDAATYYCHQYHRSPLTFGAGTKLELK
modifications: calicheamicin (CalichDMH) conjugated to the antibody through the AcBut linker; residues carrying it not stated
With B3, the “Fold CalichDMH, MTS assay, MDAMB435/5T4 cells” value in assay [16] was found to be 0.13 fold.

B4: chimeric A2 antibody (antibody, human IgG4, V domains shown)
VH: QVQLQQSRPELVKPGASVKMSCKASGYTFTDYVISWVKQRTGQGLEWIGEIYPGSNSIYYNEKFKGRATLTADKSSSTAYMQLSSLTSEDSAVYFCAMGGNYGFDYWGQGTTLTVSS
VL: QIVLTQSPAIMSASLGERVTLTCTASSSVNSNYLHWYQQKPGSSPKLWIYSTSNLASGVPARFSGSGSGTSYSLTISSMEAEDAATYYCHQYHRSPLTFGAGTKLELK
notes: also called ChiA2; ChiA2 γ4
As for B4, the “percentage of second antibody bound following saturation with first antibody” value with human 5T4 antigen [2] came out at 86.9%; with human 5T4 antigen [3], 90.5%; with human 5T4 antigen [4], 86.9%; in the assay with human 5T4 antigen [6] it was 93.7%; in the assay with human 5T4 antigen [10], 84.7%; with human 5T4 antigen [11], 96.7%. The Ka with human 5T4 antigen [5] stood at 5.7e+08 M⁻¹. In the assay with human 5T4 antigen [5], this molecule displayed a Kd of 1.8 nM. The same molecule showed a dissociation rate constant (koff) with human 5T4 antigen [5] of 0.00025 s⁻¹. Further, in the assay with human 5T4 antigen [5], the kon came to 140000 M⁻¹ s⁻¹. Besides, the half-maximal effective concentration (EC50) in the assay with human 5T4 ectodomain Fc came out at 0.21 nM; in assay [7], 0.18 nM; in assay [8], 0.22 nM; in assay [9] it was 0.22 nM.
